Test system: HUVECs
Experiment: In vitro tube formation assay on Matrigel
Format: cell-based, human
Conditions: positive controls, 4 hours on Matrigel, compared to the control group
Description: HUVECs (2×10^4 cells/well) were seeded on a layer of polymerized Matrigel and treated with or without visfatin-derived peptides. The Matrigel culture was incubated at 37°C in the EGM supplemented with EGM-Supplement Mix® containing 1% FBS. After 4 hours, changes in the cell morphology were observed using a phase-contrast microscope and photographed at 40× magnification. Each sample was assayed in duplicate, and independent experiments were repeated three times. Angiogenesis was analyzed with ImageJ software using an angiogenesis analyzer (Bethesda, MD, USA).

B1: visfatin: Commercial recombinant mouse visfatin (Adipogen Life Science), positive control (protein, UniProt Q99KQ4 1-491, looked up)
Nicotinamide …: MNAAAEAEFNILLATDSYKVTHYKQYPPNTSKVYSYFECREKKTENSKVRKVKYEETVFYGLQYILNKYLKGKVVTKEKIQEAKEVYREHFQDDVFNERGWNYILEKYDGHLPIEVKAVPEGSVIPRGNVLFTVENTDPECYWLTNWIETILVQSWYPITVATNSREQKKILAKYLLETSGNLDGLEYKLHDFGYRGVSSQETAGIGASAHLVNFKGTDTVAGIALIKKYYGTKDPVPGYSVPAAEHSTITAWGKDHEKDAFEHIVTQFSSVPVSVVSDSYDIYNACEKIWGEDLRHLIVSRSTEAPLIIRPDSGNPLDTVLKVLDILGKKFPVTENSKGYKLLPPYLRVIQGDGVDINTLQEIVEGMKQKKWSIENVSFGSGGALLQKLTRDLLNCSFKCSYVVTNGLGVNVFKDPVADPNKRSKKGRLSLHRTPAGNFVTLEEGKGDLEEYGHDLLHTVFKNGKVTKSYSFDEVRKNAQLNIEQDVAPH
  number of meshes: not significantly different

— article PMC10309634, “Computer simulation approach to the identification of visfatin-derived angiogenic peptides” (PLOS ONE, 2023)
